Results on one variant are retold here after PMC9117659, “Phase transition and remodeling complex assembly are important for SS18-SSX oncogenic activity in synovial sarcomas” (Nature Communications, 2022).

First the molecules themselves.
B1: Human SS18 (residues 1-387), purified recombinant [human] / BRG1^(1-282), N-terminal 282-residue fragment of BRG1 [human] (parent complex)
chain 1: MSVAFAAPRQRGKGEITPAAIQKMLDDNNHLIQCIMDSQNKGKTSECSQYQQMLHTNLVYLATIADSNQNMQSLLPAPPTQNMPMGPGGMNQSGPPPPPRSHNMPSDGMVGGGPPAPHMQNQMNGQMPGPNHMPMQGPGPNQLNMTNSSMNMPSSSHGSMGGYNHSVPSSQSMPVQNQMTMSQGQPMGNYGPRPNMSMQPNQGPMMHQQPPSQQYNMPQGGGQHYQGQQPPMGMMGQVNQGNHMMGQRQIPPYRPPQQGPPQQYSGQEDYYGDQYSHGGQGPPEGMNQQYYPDGNSQYGQQQDAYQGPPPQQGYPPQQQQYPGQQGYPGQQQGYGPSQGGPGPQYPNYPQGQGQQYGGYRPTQPGPPQPPQQRPYGYDQGQYGNYQQ
chain 2: MSTPDPPLGGTPRPGPSPGPGPSPGAMLGPSPGPSPGSAHSMMGPSPGPPSAGHPIPTQGPGGYPQDNMHQMHKPMESMHEKGMSDDPRYNQMKGMGMRSGGHAGMGPPPSPMDQHSQGYPSPLGGSEHASSPVPASGPSSGPQMSSGPGGAPLDGADPQALGQQNRGPTPFNQNQLHQLRAQIMAYKMLARGQPLPDHLQMAVQGKRPMPGMQQQMPTLPPPSVSATGPGPGPGPGPGPGPGPAPPNYSRPHGMGGPNMPPPGPSGVPPGMPGQPPGGPPK

In this experiment the parent is B1. The experiment is described as follows: sedimentation assay; 60 µM each protein; parent: 65; read off a plot.
For chain 1 MSVAFAAPRQRGKGEITPAAIQKMLDDNNHLEQCIMDSQNKGKTSECSQYQQMEHTNLVYLATIEDSNQNMQSLLPAPPTQNMPMGPGGMNQSGPPPPPRSHNMPSDGMVGGGPPAPHMQNQMNGQMPGPNHMPMQGPGPNQLNMTNSSMNMPSSSHGSMGGYNHSVPSSQSMPVQNQMTMSQGQPMGNYGPRPNMSMQPNQGPMMHQQPPSQQYNMPQGGGQHYQGQQPPMGMMGQVNQGNHMMGQRQIPPYRPPQQGPPQQYSGQEDYYGDQYSHGGQGPPEGMNQQYYPDGNSQYGQQQDAYQGPPPQQGYPPQQQQYPGQQGYPGQQQGYGPSQGGPGPQYPNYPQGQGQQYGGYRPTQPGPPQPPQQRPYGYDQGQYGNYQQ [chain 1 I32E, chain 1 L54E, chain 1 A65E], the screen value was around 6%.
